Laboratory results: publication PMC11405395 (The EMBO Journal, 2024)

Tests used:
[1] = target: T1, Homo sapiens CMG helicase (CDC45-MCM2-7-GINS) (human, UniProt P49736 1-904; P25205 1-808; P33991 1-863; P33992 1-734; Q14566 1-821; P33993 …); test: co-IP; purified proteins mixed: 10 nM RTEL1-FLAG with 15 nM hsCMG, 10 min on ice; anti-FLAG M2 magnetic beads; 25 mM Hepes-KOH pH 7.6, 100 mM KOAc, 0.02% NP-40-S, 0.1 mg/mL BSA, 1 mM DTT, 10 mM Mg(OAc)2; immunoblotting; conditions: both partners purified
T1 construct: MCM2, human, subunit of CMG; MCM3, human, subunit of CMG; MCM4, human, subunit of CMG; MCM5, human, subunit of CMG; MCM6, human, subunit of CMG; MCM7, human, subunit of CMG; CDC45, human, subunit of CMG; SLD5 (GINS4), human, GINS subunit of CMG (PrA-3TEV-HsSld5; eluted from IgG Sepharose with TEV protease); PSF1 (GINS1), human, GINS subunit of CMG; PSF2 (GINS2), human, GINS subunit of CMG; PSF3 …

[2] = target: T2, Homo sapiens DNA polymerase ε (POLE1, POLE2, POLE3, POLE4) (human, UniProt Q07864 1-2286; P56282 1-527; Q9NRF9 1-147; Q9NR33 1-117); test: co-IP; purified proteins mixed: 10 nM RTEL1-FLAG with 15 nM hsPol ε, 10 min on ice; anti-FLAG M2 magnetic beads; 25 mM Hepes-KOH pH 7.6, 200 mM KOAc, 0.02% NP-40-S, 0.1 mg/mL BSA, 1 mM DTT, 10 mM Mg(OAc)2; immunoblotting; conditions: both partners purified
T2 construct: POLE1 (catalytic subunit of DNA polymerase ε), human; POLE2 (homologue of budding yeast Dpb2), human (PolE2_tev_2XFLAG; tag removed with TEV protease); POLE3, human; POLE4, human; The methods call the removed tag 3FLAG, the strain and plasmid 2XFLAG; also called hsPOL ε; POL ε; source: S. cerevisiae strain ySP061, purified (anti-FLAG M2 resin, TEV cleavage, MonoQ, Superdex 200); not shown: …
T2 sequence (Q07864 whole entry, chain 1 of 4): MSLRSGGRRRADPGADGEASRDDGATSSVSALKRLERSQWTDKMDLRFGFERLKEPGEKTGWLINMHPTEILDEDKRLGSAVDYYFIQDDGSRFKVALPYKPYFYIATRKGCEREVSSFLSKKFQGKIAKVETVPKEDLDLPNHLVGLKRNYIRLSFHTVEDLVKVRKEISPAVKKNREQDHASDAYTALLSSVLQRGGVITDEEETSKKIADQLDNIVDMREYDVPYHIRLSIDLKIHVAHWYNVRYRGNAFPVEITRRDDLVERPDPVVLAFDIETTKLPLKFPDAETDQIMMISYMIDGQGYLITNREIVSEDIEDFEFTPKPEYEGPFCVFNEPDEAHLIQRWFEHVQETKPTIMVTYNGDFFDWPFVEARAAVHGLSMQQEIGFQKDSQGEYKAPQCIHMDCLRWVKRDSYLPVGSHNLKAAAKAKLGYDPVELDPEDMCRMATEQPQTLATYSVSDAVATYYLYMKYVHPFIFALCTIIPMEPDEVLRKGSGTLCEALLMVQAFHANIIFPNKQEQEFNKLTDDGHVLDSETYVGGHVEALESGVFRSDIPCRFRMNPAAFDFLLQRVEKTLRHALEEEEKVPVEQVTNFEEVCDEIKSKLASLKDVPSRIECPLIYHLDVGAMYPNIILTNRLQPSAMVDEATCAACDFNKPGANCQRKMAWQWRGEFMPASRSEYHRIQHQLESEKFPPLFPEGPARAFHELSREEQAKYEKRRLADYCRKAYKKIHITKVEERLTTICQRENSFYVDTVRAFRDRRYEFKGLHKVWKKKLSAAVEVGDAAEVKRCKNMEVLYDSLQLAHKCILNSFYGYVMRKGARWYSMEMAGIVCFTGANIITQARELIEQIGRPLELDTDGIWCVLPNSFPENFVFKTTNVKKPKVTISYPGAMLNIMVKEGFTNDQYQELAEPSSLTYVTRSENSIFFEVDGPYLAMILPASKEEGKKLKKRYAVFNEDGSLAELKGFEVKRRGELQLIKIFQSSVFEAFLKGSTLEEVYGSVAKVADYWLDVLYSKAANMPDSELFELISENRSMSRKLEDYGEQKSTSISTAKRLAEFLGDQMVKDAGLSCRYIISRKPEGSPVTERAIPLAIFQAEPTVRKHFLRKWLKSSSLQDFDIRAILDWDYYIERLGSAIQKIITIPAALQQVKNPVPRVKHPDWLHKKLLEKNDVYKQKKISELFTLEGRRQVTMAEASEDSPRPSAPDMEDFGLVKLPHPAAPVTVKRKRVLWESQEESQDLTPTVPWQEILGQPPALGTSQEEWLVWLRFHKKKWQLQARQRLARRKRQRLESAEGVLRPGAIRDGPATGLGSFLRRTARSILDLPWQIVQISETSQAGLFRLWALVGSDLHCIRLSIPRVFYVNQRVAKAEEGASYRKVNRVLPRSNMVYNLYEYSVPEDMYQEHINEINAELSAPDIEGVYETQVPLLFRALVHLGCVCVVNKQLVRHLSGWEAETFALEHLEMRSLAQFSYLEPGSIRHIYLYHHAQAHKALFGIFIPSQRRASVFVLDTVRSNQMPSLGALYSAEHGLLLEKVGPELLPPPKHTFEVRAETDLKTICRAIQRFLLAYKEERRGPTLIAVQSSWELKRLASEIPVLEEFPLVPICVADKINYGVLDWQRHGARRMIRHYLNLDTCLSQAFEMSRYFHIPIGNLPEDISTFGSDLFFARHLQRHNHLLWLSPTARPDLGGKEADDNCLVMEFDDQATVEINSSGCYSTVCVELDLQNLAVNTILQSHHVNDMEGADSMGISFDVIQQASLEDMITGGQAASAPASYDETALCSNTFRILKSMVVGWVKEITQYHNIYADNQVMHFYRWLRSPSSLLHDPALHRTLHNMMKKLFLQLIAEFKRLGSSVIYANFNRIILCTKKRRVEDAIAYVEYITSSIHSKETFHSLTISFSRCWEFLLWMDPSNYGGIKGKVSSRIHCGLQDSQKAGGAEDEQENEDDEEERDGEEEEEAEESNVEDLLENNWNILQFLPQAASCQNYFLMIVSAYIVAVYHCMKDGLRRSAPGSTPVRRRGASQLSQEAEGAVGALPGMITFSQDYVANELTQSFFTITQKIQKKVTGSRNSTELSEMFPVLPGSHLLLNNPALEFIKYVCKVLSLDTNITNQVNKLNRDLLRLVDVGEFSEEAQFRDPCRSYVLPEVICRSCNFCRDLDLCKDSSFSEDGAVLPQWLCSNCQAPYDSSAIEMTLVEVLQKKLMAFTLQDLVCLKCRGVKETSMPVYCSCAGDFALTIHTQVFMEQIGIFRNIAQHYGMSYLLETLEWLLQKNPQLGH
T2 sequence (P56282 whole entry, chain 2 of 4): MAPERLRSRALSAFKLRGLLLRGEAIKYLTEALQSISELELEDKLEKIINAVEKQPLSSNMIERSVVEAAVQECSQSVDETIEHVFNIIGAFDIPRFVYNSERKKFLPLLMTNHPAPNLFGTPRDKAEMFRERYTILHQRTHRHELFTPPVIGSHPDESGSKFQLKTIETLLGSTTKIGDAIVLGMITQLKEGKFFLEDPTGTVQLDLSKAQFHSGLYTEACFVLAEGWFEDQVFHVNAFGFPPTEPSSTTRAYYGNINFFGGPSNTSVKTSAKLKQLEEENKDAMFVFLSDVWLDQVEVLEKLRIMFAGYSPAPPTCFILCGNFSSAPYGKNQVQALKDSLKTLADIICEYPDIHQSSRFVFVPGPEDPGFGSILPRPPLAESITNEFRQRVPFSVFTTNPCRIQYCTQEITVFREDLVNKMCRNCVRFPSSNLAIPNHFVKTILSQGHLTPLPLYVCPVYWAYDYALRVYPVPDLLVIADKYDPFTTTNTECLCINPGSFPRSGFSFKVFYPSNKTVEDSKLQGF
T2 sequence (Q9NRF9 whole entry, chain 3 of 4): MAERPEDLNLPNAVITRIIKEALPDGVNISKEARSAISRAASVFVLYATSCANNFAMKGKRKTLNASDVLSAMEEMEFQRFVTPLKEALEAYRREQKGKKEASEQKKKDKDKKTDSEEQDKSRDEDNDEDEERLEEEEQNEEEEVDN
T2 sequence (Q9NR33 whole entry, chain 4 of 4): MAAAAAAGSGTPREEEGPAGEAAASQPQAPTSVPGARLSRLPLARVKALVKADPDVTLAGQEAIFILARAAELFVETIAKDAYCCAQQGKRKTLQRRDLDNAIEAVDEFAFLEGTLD

B1: RTEL1ΔE813-E821 (enzyme, human, UniProt Q9NZ71-1 1-1219, looked up)
chain: MPKIVLNGVTVDFPFQPYKCQQEYMTKVLECLQQKVNGILESPTGTGKTLCLLCTTLAWREHLRDGISARKIAERAQGELFPDRALSSWGNAAAAAGDPIACYTDIPKIIYASRTHSQLTQVINELRNTSYRPKVCVLGSREQLCIHPEVKKQESNHLQIHLCRKKVASRSCHFYNNVEEKSLEQELASPILDIEDLVKSGSKHRVCPYYLSRNLKQQADIIFMPYNYLLDAKSRRAHNIDLKGTVVIFDEAHNVEKMCEESASFDLTPHDLASGLDVIDQVLEEQTKAAQQGEPHPEFSADSPSPGLNMELEDIAKLKMILLRLEGAIDAVELPGDDSGVTKPGSYIFELFAEAQITFQTKGCILDSLDQIIQHLAGRAGVFTNTAGLQKLADIIQIVFSVDPSEGSPGSPAGLGALQSYKVHIHPDAGHRRTAQRSDAWSTTAARKRGKVLSYWCFSPGHSMHELVRQGVRSLILTSGTLAPVSSFALEMQIPFPVCLENPHIIDKHQIWVGVVPRGPDGAQLSSAFDRRFSEECLSSLGKALGNIARVVPYGLLIFFPSYPVMEKSLEFWRARDLARKMEALKPLFVEPRSKGSFSETISAYYARVAAPGSTGATFLAVCRGKASEGLDFSDTNGRGVIVTGLPYPPRMDPRVVLKMQFLDEMKGQGGAGGQFLSGQEWYRQQASRAVNQAIGRVIRHRQDYGAVFLCDHRFAFADARAQLPSWVRPHVRVYDNFGHVIRDVAQFFRVAERTMPAPAPRATAPSVRGEDAVSEAKSPGPFFSTRKAKSLDLHVPSLKQRSSGSPAAGDPQEPVPARQRPRGLLAALEHSEQRAGSPGEEQAHSCSTLSLLSEKRPAEEPRGGRKKIRLVSHPEEPVAGAQTDRAKLFMVAVKQELSQANFATFTQALQDYKGSDDFAALAACLGPLFAEDPKKHNLLQGFYQFVRPHHKQQFEEVCIQLTGRGCGYRPEHSIPRRQRAQPVLDPTGRTAPDPKLTVSTAAAQQLDPQEHLNQGRPHLSPRPPPTGDPGSQPQWGSGVPRAGKQGQHAVSAYLADARRALGSAGCSQLLAALTAYKQDDDLDKVLAVLAALTTAKPEDFPLLHRFSMFVRPHHKQRFSQTCTDLTGRPYPGMEPPGPQEERLAVPPVLTHRAPQPGPSRSEKTGKTQSKISSFLRQRPAGTVGAGGEDAGPSQSSGPPHGPAASEWGL
notes: Plasmid pSP51; also called hsRTEL1ΔE813-E821; source: S. cerevisiae strain ySP075, purified (anti-FLAG M2 resin, HiLoad Superdex 200); not shown: 2XFLAG, C-terminal, kept
binding result [1]: binds | binding result [2]: binds

B2: RTEL1ΔL834-G846 (enzyme, human, UniProt Q9NZ71-1 1-1219, looked up)
chain: MPKIVLNGVTVDFPFQPYKCQQEYMTKVLECLQQKVNGILESPTGTGKTLCLLCTTLAWREHLRDGISARKIAERAQGELFPDRALSSWGNAAAAAGDPIACYTDIPKIIYASRTHSQLTQVINELRNTSYRPKVCVLGSREQLCIHPEVKKQESNHLQIHLCRKKVASRSCHFYNNVEEKSLEQELASPILDIEDLVKSGSKHRVCPYYLSRNLKQQADIIFMPYNYLLDAKSRRAHNIDLKGTVVIFDEAHNVEKMCEESASFDLTPHDLASGLDVIDQVLEEQTKAAQQGEPHPEFSADSPSPGLNMELEDIAKLKMILLRLEGAIDAVELPGDDSGVTKPGSYIFELFAEAQITFQTKGCILDSLDQIIQHLAGRAGVFTNTAGLQKLADIIQIVFSVDPSEGSPGSPAGLGALQSYKVHIHPDAGHRRTAQRSDAWSTTAARKRGKVLSYWCFSPGHSMHELVRQGVRSLILTSGTLAPVSSFALEMQIPFPVCLENPHIIDKHQIWVGVVPRGPDGAQLSSAFDRRFSEECLSSLGKALGNIARVVPYGLLIFFPSYPVMEKSLEFWRARDLARKMEALKPLFVEPRSKGSFSETISAYYARVAAPGSTGATFLAVCRGKASEGLDFSDTNGRGVIVTGLPYPPRMDPRVVLKMQFLDEMKGQGGAGGQFLSGQEWYRQQASRAVNQAIGRVIRHRQDYGAVFLCDHRFAFADARAQLPSWVRPHVRVYDNFGHVIRDVAQFFRVAERTMPAPAPRATAPSVRGEDAVSEAKSPGPFFSTRKAKSLDLHVPSLKQRSSGSPAAGDPESSLCVEYEQEPVPARQRPRGSPGEEQAHSCSTLSLLSEKRPAEEPRGGRKKIRLVSHPEEPVAGAQTDRAKLFMVAVKQELSQANFATFTQALQDYKGSDDFAALAACLGPLFAEDPKKHNLLQGFYQFVRPHHKQQFEEVCIQLTGRGCGYRPEHSIPRRQRAQPVLDPTGRTAPDPKLTVSTAAAQQLDPQEHLNQGRPHLSPRPPPTGDPGSQPQWGSGVPRAGKQGQHAVSAYLADARRALGSAGCSQLLAALTAYKQDDDLDKVLAVLAALTTAKPEDFPLLHRFSMFVRPHHKQRFSQTCTDLTGRPYPGMEPPGPQEERLAVPPVLTHRAPQPGPSRSEKTGKTQSKISSFLRQRPAGTVGAGGEDAGPSQSSGPPHGPAASEWGL
notes: Plasmid pSP48; also called hsRTEL1ΔL834-G846; source: S. cerevisiae strain ySP072, purified (anti-FLAG M2 resin, HiLoad Superdex 200); not shown: 2XFLAG, C-terminal, kept
binding result [1]: binds

B3: RTEL1ΔR875-V881 (enzyme, human, UniProt Q9NZ71-1 1-1219, looked up)
chain: MPKIVLNGVTVDFPFQPYKCQQEYMTKVLECLQQKVNGILESPTGTGKTLCLLCTTLAWREHLRDGISARKIAERAQGELFPDRALSSWGNAAAAAGDPIACYTDIPKIIYASRTHSQLTQVINELRNTSYRPKVCVLGSREQLCIHPEVKKQESNHLQIHLCRKKVASRSCHFYNNVEEKSLEQELASPILDIEDLVKSGSKHRVCPYYLSRNLKQQADIIFMPYNYLLDAKSRRAHNIDLKGTVVIFDEAHNVEKMCEESASFDLTPHDLASGLDVIDQVLEEQTKAAQQGEPHPEFSADSPSPGLNMELEDIAKLKMILLRLEGAIDAVELPGDDSGVTKPGSYIFELFAEAQITFQTKGCILDSLDQIIQHLAGRAGVFTNTAGLQKLADIIQIVFSVDPSEGSPGSPAGLGALQSYKVHIHPDAGHRRTAQRSDAWSTTAARKRGKVLSYWCFSPGHSMHELVRQGVRSLILTSGTLAPVSSFALEMQIPFPVCLENPHIIDKHQIWVGVVPRGPDGAQLSSAFDRRFSEECLSSLGKALGNIARVVPYGLLIFFPSYPVMEKSLEFWRARDLARKMEALKPLFVEPRSKGSFSETISAYYARVAAPGSTGATFLAVCRGKASEGLDFSDTNGRGVIVTGLPYPPRMDPRVVLKMQFLDEMKGQGGAGGQFLSGQEWYRQQASRAVNQAIGRVIRHRQDYGAVFLCDHRFAFADARAQLPSWVRPHVRVYDNFGHVIRDVAQFFRVAERTMPAPAPRATAPSVRGEDAVSEAKSPGPFFSTRKAKSLDLHVPSLKQRSSGSPAAGDPESSLCVEYEQEPVPARQRPRGLLAALEHSEQRAGSPGEEQAHSCSTLSLLSEKRPAEEPRGGSHPEEPVAGAQTDRAKLFMVAVKQELSQANFATFTQALQDYKGSDDFAALAACLGPLFAEDPKKHNLLQGFYQFVRPHHKQQFEEVCIQLTGRGCGYRPEHSIPRRQRAQPVLDPTGRTAPDPKLTVSTAAAQQLDPQEHLNQGRPHLSPRPPPTGDPGSQPQWGSGVPRAGKQGQHAVSAYLADARRALGSAGCSQLLAALTAYKQDDDLDKVLAVLAALTTAKPEDFPLLHRFSMFVRPHHKQRFSQTCTDLTGRPYPGMEPPGPQEERLAVPPVLTHRAPQPGPSRSEKTGKTQSKISSFLRQRPAGTVGAGGEDAGPSQSSGPPHGPAASEWGL
notes: Plasmid pSP52; also called hsRTEL1ΔR875-V881; source: S. cerevisiae strain ySP076, purified (anti-FLAG M2 resin, HiLoad Superdex 200); not shown: 2XFLAG, C-terminal, kept
binding result [2]: binds

B4: RTEL1 ΔE813-E821 ΔR875-V881 (enzyme, human, UniProt Q9NZ71-1 1-1219, looked up)
chain: MPKIVLNGVTVDFPFQPYKCQQEYMTKVLECLQQKVNGILESPTGTGKTLCLLCTTLAWREHLRDGISARKIAERAQGELFPDRALSSWGNAAAAAGDPIACYTDIPKIIYASRTHSQLTQVINELRNTSYRPKVCVLGSREQLCIHPEVKKQESNHLQIHLCRKKVASRSCHFYNNVEEKSLEQELASPILDIEDLVKSGSKHRVCPYYLSRNLKQQADIIFMPYNYLLDAKSRRAHNIDLKGTVVIFDEAHNVEKMCEESASFDLTPHDLASGLDVIDQVLEEQTKAAQQGEPHPEFSADSPSPGLNMELEDIAKLKMILLRLEGAIDAVELPGDDSGVTKPGSYIFELFAEAQITFQTKGCILDSLDQIIQHLAGRAGVFTNTAGLQKLADIIQIVFSVDPSEGSPGSPAGLGALQSYKVHIHPDAGHRRTAQRSDAWSTTAARKRGKVLSYWCFSPGHSMHELVRQGVRSLILTSGTLAPVSSFALEMQIPFPVCLENPHIIDKHQIWVGVVPRGPDGAQLSSAFDRRFSEECLSSLGKALGNIARVVPYGLLIFFPSYPVMEKSLEFWRARDLARKMEALKPLFVEPRSKGSFSETISAYYARVAAPGSTGATFLAVCRGKASEGLDFSDTNGRGVIVTGLPYPPRMDPRVVLKMQFLDEMKGQGGAGGQFLSGQEWYRQQASRAVNQAIGRVIRHRQDYGAVFLCDHRFAFADARAQLPSWVRPHVRVYDNFGHVIRDVAQFFRVAERTMPAPAPRATAPSVRGEDAVSEAKSPGPFFSTRKAKSLDLHVPSLKQRSSGSPAAGDPQEPVPARQRPRGLLAALEHSEQRAGSPGEEQAHSCSTLSLLSEKRPAEEPRGGSHPEEPVAGAQTDRAKLFMVAVKQELSQANFATFTQALQDYKGSDDFAALAACLGPLFAEDPKKHNLLQGFYQFVRPHHKQQFEEVCIQLTGRGCGYRPEHSIPRRQRAQPVLDPTGRTAPDPKLTVSTAAAQQLDPQEHLNQGRPHLSPRPPPTGDPGSQPQWGSGVPRAGKQGQHAVSAYLADARRALGSAGCSQLLAALTAYKQDDDLDKVLAVLAALTTAKPEDFPLLHRFSMFVRPHHKQRFSQTCTDLTGRPYPGMEPPGPQEERLAVPPVLTHRAPQPGPSRSEKTGKTQSKISSFLRQRPAGTVGAGGEDAGPSQSSGPPHGPAASEWGL
notes: Plasmid pSP53; also called hsRTEL1ΔE813-E821 ΔR875-V881; source: S. cerevisiae strain ySP070, purified (anti-FLAG M2 resin, HiLoad Superdex 200); not shown: 2XFLAG, C-terminal, kept
binding result [2]: binds
